Biological target: Dipeptidyl aminopeptidase BII (DAP BII) from Pseudoxanthomonas mexicana WO24, wild type (Pseudoxanthomonas mexicana WO24) (UniProt V5YM14)
Assay: enzyme inhibition assay

Chain of Dipeptidyl aminopeptidase BII (DAP BII) from Pseudoxanthomonas mexicana WO24, wild type (Pseudoxanthomonas mexicana WO24) (V5YM14 25-722): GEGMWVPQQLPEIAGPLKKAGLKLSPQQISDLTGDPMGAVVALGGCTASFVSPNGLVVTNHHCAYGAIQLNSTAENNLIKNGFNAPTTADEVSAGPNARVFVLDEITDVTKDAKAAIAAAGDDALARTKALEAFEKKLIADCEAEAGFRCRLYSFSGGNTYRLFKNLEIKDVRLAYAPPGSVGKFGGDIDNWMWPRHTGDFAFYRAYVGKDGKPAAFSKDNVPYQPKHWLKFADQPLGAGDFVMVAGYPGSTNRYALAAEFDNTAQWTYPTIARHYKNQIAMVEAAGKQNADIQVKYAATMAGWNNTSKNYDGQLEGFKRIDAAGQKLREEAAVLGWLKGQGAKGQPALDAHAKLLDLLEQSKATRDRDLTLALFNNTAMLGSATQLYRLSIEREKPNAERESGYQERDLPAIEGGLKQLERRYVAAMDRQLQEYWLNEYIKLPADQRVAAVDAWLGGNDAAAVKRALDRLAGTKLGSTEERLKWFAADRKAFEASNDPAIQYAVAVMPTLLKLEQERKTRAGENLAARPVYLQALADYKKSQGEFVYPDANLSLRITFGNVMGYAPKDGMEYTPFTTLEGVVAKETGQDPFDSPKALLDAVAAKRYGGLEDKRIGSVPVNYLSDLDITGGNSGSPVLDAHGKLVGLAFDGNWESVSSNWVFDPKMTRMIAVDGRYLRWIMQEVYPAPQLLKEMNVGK

dipeptide Val-Tyr
Ki: 410 µM

Source: PMC4021333
